Test results published in PMC5716075, “Conserved asymmetry underpins homodimerization of Dicer-associated double-stranded RNA-binding proteins” (Nucleic Acids Research, 2017).

B1: PACT-D3 (PACT residues 239-313, core dsRBD 3), wild type (domain or fragment, human, UniProt O75569 239-313, looked up)
chain: TDYIQLLSEIAKEQGFNITYLDIDELSANGQYQCLAELSTSPITVCHGSGISCGNAQSDAAHNALQYLKIIAERK
notes: Grown in M9 with 15N ammonium chloride (and 13C glucose for 3D NMR samples); also called WT PACT-D3; source: E. coli BL21 (DE3), purified (HisTrap, tag removed with 3C protease, Superdex S75); not shown: His6, N-terminal, cleaved; MBP, N-terminal, cleaved
B2: full length (FL) PACT (protein activator of PKR), O75569 1-313 (natural protein)
chain: MSQSRHRAEAPPLEREDSGTFSLGKMITAKPGKTPIQVLHEYGMKTKNIPVYECERSDVQIHVPTFTFRVTVGDITCTGEGTSKKLAKHRAAEAAINILKANASICFAVPDPLMPDPSKQPKNQLNPIGSLQELAIHHGWRLPEYTLSQEGGPAHKREYTTICRLESFMETGKGASKKQAKRNAAEKFLAKFSNISPENHISLTNVVGHSLGCTWHSLRNSPGEKINLLKRSLLSIPNTDYIQLLSEIAKEQGFNITYLDIDELSANGQYQCLAELSTSPITVCHGSGISCGNAQSDAAHNALQYLKIIAERK
B3: R353H,R354N TRBP-Ext-D3 (PACT-like variant of TRBP-Ext-D3) (domain or fragment, human, UniProt Q15633 258-366, looked up)
chain: NRGPGCTWDSLRNSVGEKILSLRSCSLGSLGALGPACCRVLSELSEEQAFHVSYLDIEELSLSGLCQCLVELSTQPATVCHGSATTREAARGEAAHNALQYLKIMAGSK
notes: source: E. coli BL21 (DE3), purified (HisTrap, tag removed with 3C protease, Superdex S75); not shown: His6, N-terminal, cleaved; MBP, N-terminal, cleaved
B4: PACT-Ext-D3 (PACT residues 208-313, dsRBD 3 with the conserved N-terminal extension), wild type (domain or fragment, human, UniProt O75569 208-313, looked up)
chain: GHSLGCTWHSLRNSPGEKINLLKRSLLSIPNTDYIQLLSEIAKEQGFNITYLDIDELSANGQYQCLAELSTSPITVCHGSGISCGNAQSDAAHNALQYLKIIAERK
notes: also called WT PACT-Ext-D3; source: E. coli BL21 (DE3), purified (HisTrap, tag removed with 3C protease, Superdex S75); not shown: His6, N-terminal, cleaved; MBP, N-terminal, cleaved
B5: Loqs-D3 (Loquacious residues 392-463, dsRBD 3), wild type (domain or fragment, Drosophila, UniProt Q9VJY9 392-463, looked up)
chain: IDYIKLLGEIATENQFEVTYVDIEEKTFSGQFQCLVQLSTLPVGVCHGSGPTAADAQRHAAQNALEYLKIMT
notes: Loquacious (Loqs), Drosophila, residues 392-463 (dsRBD 3, Type B); also called WT Loqs-D3; source: E. coli BL21 (DE3), purified (GSTrap, tag removed with tobacco etch virus protease, size exclusion)

Experiments:
[1] = target: the molecule itself; assay: SEC-MALS; SEC-MALLS; Superdex S75 10/30 (except where otherwise noted), 20 mM MES pH 6.5, 200 mM NaCl, 1 mM dithiothreitol, 0.5 ml/minute; 100 μl of protein at 2–5 mg/ml injected
[2] = target: T1, full length (FL) PACT (protein activator of PKR) (human), O75569; assay: as above; conditions: remark: other sources report otherwise
T1 chain: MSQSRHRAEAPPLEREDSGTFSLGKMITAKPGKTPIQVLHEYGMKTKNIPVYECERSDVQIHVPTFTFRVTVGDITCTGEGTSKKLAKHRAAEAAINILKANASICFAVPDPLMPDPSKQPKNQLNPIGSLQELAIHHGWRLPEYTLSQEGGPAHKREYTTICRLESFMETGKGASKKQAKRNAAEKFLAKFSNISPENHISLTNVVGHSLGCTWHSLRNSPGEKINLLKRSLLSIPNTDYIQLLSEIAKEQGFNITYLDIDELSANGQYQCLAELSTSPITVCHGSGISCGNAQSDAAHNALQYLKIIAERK

Binder | stoichiometry N [1] | stoichiometry N [2]
B1 | 2 | –
B2 | – | 2
B3 | 2 | –
B4 | 2 | –
B5 | 2 | –
